This data set in a line: yeast display, Sf9 membrane polyspecificity reagent, FACS + sequencing; frameworks hold sequencing errors. In a few lines: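 In a synthetic yeast display library (Saccharomyces cerevisiae BJ5465), nanobody expression was induced with galactose for 36–48 hours. FACS gates were set low and high (top ~1%) using anti-HA fluorescence for expression and streptavidin fluorescence for binding of the Sf9 membrane reagent. Each polyreactivity label is drawn from the gate of origin.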
As for “QVQLVESGGGLVQAGGSLRLSCAASGRTLSHYAMGWYRQAPGKERELVAAITRSGGSTYYADSVKGRFTISRDNAKNTVYLQMNSLKPEDTAVYYCNKTLYTTYDYWGQGTQVTVSS”, the “polyreactivity (PSR sort gate)” value was “low polyreactivity”.

“QVQLVESGGVLVQAGGSLRLSCAASGNIFVPYAMGWYRQAPGKERDLVAAISSRGGRTYYADSVKGRFTISRDNAKNTVYLQMNSLKPEDTAVFYCNKVAKSSVLTLDYWGQGTQVTVSS”: the “polyreactivity (PSR sort gate)” value is “high polyreactivity”. Under “QVQLVESGGGIVQAGGSLRLSCAASGFIFDAYAMGWYRQAPGKERELVAGISIGGRTIYADSVKGRFTISRDNAKNTVYLQMNSLKPEDTAVYYCAARNYRYYYGSYYRGPITNYEYWGQGTQVTVSS” stands “low polyreactivity”.

As for “QDQLLESGGGLVQAGGSLRLSCAASGFTFYRYAMGWYRQAPGKERELVASISKSCGSTYYADSVKGRFTISRDNAKNTVYLQMNSLKPEDTAVYYCAADVDYPYGYWGQGTQVTVSS”, the “polyreactivity (PSR sort gate)” value is “low polyreactivity”. Under “QVQLVESGGGLVQAGGSLRLSCAASGIIFKSYAMGWYRQAPGKERELVAAISSGGSTYYVDSVKGRFTISRDNAKNTVYLQMNSLKPEDTAVYYCNARYKRYSYDYWGHGTQVTVSS” stands “high polyreactivity”; under “QVQLVESGGGLVQAGGSLRLSCAASGFIFSSYAMGWYRQAPGKERELVAAISRSGGRTYYADSVKGRFTISRDNAKNTVYLQMNSLKPEDTAVYYCAAKWLGTAGDDYWGQGTQVTVSS”, “high polyreactivity”; under “QVQLVESGGGLVQAGGSLRLSCAASGSIFPSYAMGWYRQAPGKERELVAAISRSAGSTYYADSVKGRFTISRDNAKNTVYLQMNSLKPEDTAVYYCAAEGYSSRYRYDYWGQGTQVTVSS”, “low polyreactivity”. Under “QVQHVESGGGLVQAGGSLRLSCAASGRIFVYYAMGWYRQEPGKERELVATISSGGSTYYADSVKGRFTISRDNAKNTVYLHMNSLKPEDTAVYYCNARDWYLWSTYRSWYDYWGEGTQVTVSS” stands “low polyreactivity”; under “QVQLVESGGGLVQAGGSLRLSCAASGIIFYDYAMGWYRQAPGKERELVAAISSSGGRTYYADSVKGRFTISRDNAKNTVYLQMNSLNPEDTAFYYCATVSSIYRVRSTSIRYNYWGQGTQVTVSS”, “high polyreactivity”. Turning to “QVQLVESGGGLVQAGGSLRLSCAASGLIFVSNAMGWYRQAPGKERELVAAISWSGSRTYYADSVKGRFTISRENAKNTVYLQMNSLKPEDTAVYYCNAVRRGLPVVGAYDYWGQGTQVTVSS”, the “polyreactivity (PSR sort gate)” value was “high polyreactivity”.

Take “QVQLVESGGGLVQAGGSLRLSCAASGRIFYYYAMGWYRQAPGKERELVAGIDSGDSTNYADSVKGRFTISRDNAKYTVYLQMNSLKPEDTAVYYCAALHFGGYFSYYPYYYWGQGTQVTVSS”: the “polyreactivity (PSR sort gate)” value is listed as “low polyreactivity”. As for “QVQLVESGGGLVQAGGSLRLSCAASGYTFSPNDMGWYRQAPGKERELVAAMTSSVGSTYYADSVKGRFTISRDNAKNTVFLQMNSLKPEDTAVFYCAADTWYLGYPDFWLDYWGQGTQVTVSS”, the entry is “low polyreactivity”; as for “QVQLVESGGGLVQAAGSLRLSCAASGSISGYYAMGWYRQAPGKERELVASIRYTGARTYYADSVKGRFTISRDNAKNTVYLQMNSLKPEDTAVYYCAADVKRDRVWGGDYWGQGTQVTVSS”, “low polyreactivity”. As for “QVQLVESGGGLVQAGGSLSLSCAASGSIFYVNTMGWYRQAHGKERELVADISSGDSTYYADSVKGRFTISRDNAKNTVYFQMNSLKPEDTAVYFCNADVYSWVSGKEGDYWGQGTQVTVSS”, the entry is “low polyreactivity”; as for “QVQLVESGGGLVQAGGSLRLTCAASGRIFGKYAKGRYRQAAGKEREFVATITRGGGTTSYADSVKGRFTNSRDNAMNTVYLQMNSLKPVDTAVYYCATRYFRGSYRNGDYWGQGTQVTVSS”, “high polyreactivity”. As for “QVQLRESGGGLVQAGGSLLSCAASATISYYREMGWYRQAPGNERELVAGIGVGTITYYADSVKGRFTISRDNAKNTVYLQMNSLKPEDTAVYYCAAHIEGNDSHAYWGQGTQVTVSS”, the “polyreactivity (PSR sort gate)” value was “low polyreactivity”. As for “QVQLVESGGGLVQAGGSLRLSCSDSGSTFWLNAMGWYRQPPGKEREYVAAITWSSGSTYYADSVKGSFTISRDNAKNTVYLQMNSLKPEDTAVYYCNADYYFTSYEYEYWGQGTQVTVSS”, the “polyreactivity (PSR sort gate)” value is recorded as “low polyreactivity”.

On to “QVQLVESGGGLVQAGGRLRLSCAASGSTIRTYARGWYRQAPGKERELVAAITNSDGSTYYADSVKGRFTISRDNAKNTVYLQMYSLKPEDTAVYYCAAYYYPLGYDYWGQGTQVTVSS”, for which the “polyreactivity (PSR sort gate)” value is given as “low polyreactivity”.

“QVQHVESGGGLVQAGGSLRLSCPASGIIFDYYAMGWYRQAPGKERELVATITSGGSTNYADSVKGRFTISRDNAKNTVYLQMNSLKPEDTAVYYCAARTYWFPDIYPGLGMDYWGQGTQVTVSS”: the “polyreactivity (PSR sort gate)” value is “low polyreactivity”. Regarding “QVQLVESGGGLVQAGGSLRLSCAASGFTFRGYAMGWYRQAPGKERELVASITYRGGSTYYADSVKGRFTISRDNAKNTVYLQMNSLKPEDTADYYCNAGFGGRRRQDAFIGTSIYDYWGQGTQVTVSS”, the “polyreactivity (PSR sort gate)” value is on record as “low polyreactivity”.

Turning to “QVQLVESGGGLVQAGGSLRLSCAASGSIFDAYAMGWYRQSPGKERELVAAITTGGGSTYYADSVKGRFTISRDNAKNTVYLQMNSLKPEDTAVYYCAPDYGKYKGYYWGQGTQVTVSS”, the “polyreactivity (PSR sort gate)” value is recorded as “low polyreactivity”.

On to “QVQLVESGGGLVQAGGSLRLSCAASGRIFYLYAMGWYRQAPGKERELVAAITGGGSTSYADSVKGRFTISRDNAKNTVYLQMNSLKPEDTAVYYCATDRLTYTKYGYWGQGTQVTVSS”, for which the “polyreactivity (PSR sort gate)” value was “low polyreactivity”. Regarding “QVQLVESGGGLVQAGGILRLSCAASGFTFPWYTMGWYRQAPGKERELVAAISKSGGSTYYADSVKGRFTISRDNAKNTVFLQMNSLKPEDTAVYYCAARGNLYVGGDERFWGQGTQVTVSS”, the “polyreactivity (PSR sort gate)” value is “high polyreactivity”.

On to “QVQLEESGGGLVQAGGSLRLSCAASGIIIATYAMGWYRQAPGKERELVAVISNDGSTHYADSVKGRFTISRDNAKNTVYLQMNSLKPEDTAVYYCNAEEIDEASYAYPPLEYDYWGQGTQVTVSS”, for which the “polyreactivity (PSR sort gate)” value is on record as “low polyreactivity”. Under “QVQLVESGGGLVQAGGSLRLSCAASGFTFERYAMGWYRQAPGKERELVAAIDWRGVNTYYADSVKGRFTISRDNAKNTVYLQMNSLKPEDTAVYYCNARAYGRYYWGQGTQVTVSS” stands “high polyreactivity”. As for “QVQLGESGGGLVQAGGSLRLSCAASGRIFSYYAMGWYRQAPGKERELVATIDRSGDPTSYADSVKGRFTISRDNAKNTVYLQMNSLKPEDTAVYYCAATSKRARYDSWGHGTQVTVSS”, the entry is “high polyreactivity”. Turning to “QVQLVESGGGLVQAGGSLRLSCAASGSTFYYNTMGWYRQAPGKERELVAAISRSGGSTYYADSVKGRFTISRDNAKNTVYLQMNSLKPEDTAVYYCAARIIGARNLYGYWGQGTQVTVSS”, the “polyreactivity (PSR sort gate)” value is reported as “high polyreactivity”.

For “QVQLVESGGGLVQAGGSLRLSCASSGNIFVAYAMGWYRQAPGKERELVAAITSGGRTYADSVKGRFTISRDNAKNTVYLQMNSLKPEDTAVYYCNADPYYVYLGYYDRYYSGYGYWGQGTQVTVSS”, the “polyreactivity (PSR sort gate)” value is “low polyreactivity”. For “QVHLVESGGGLVQAGGSLRLSCAASGITFISYAMGWYRQAPGKEREFVAAITRRGGSTYYADSVKGRFTISRDNAKNTVYLQMNSLKPEDTAVYYCAARVLSLYTYYYWGQGTQVTVSS”, the “polyreactivity (PSR sort gate)” value is “high polyreactivity”. For the sequence “QVQLVESGGGLVQAGGSLRLSCAASGSTVYLNAMGWYRQAPGKDRELVAAITRIGGSTYYADSVKGRFTISRDNAKNTVYLQMNSLKPEDTAVYYCAKDYGPARHDRYGYWGLGTQVTVSS”, the “polyreactivity (PSR sort gate)” value is on record as “low polyreactivity”.

Turning to “QVQLVESGGGLVQAGGSLRLSCAASGSIFWYYAMGWYRQAPGKERELVAAISISGSTYYADSVKGRFTISRDNAKNTVYLQMNSLKPEDTAVYYCAARKFFWRSNYDYWGQGTQVTVSS”, the “polyreactivity (PSR sort gate)” value was “low polyreactivity”. Turning to “QVQLVESGGGLVQAGGSLRLSCAASGSIFPFYAMGWYRQAPGKERELVAAISYSGGRTYYADSVKGRFTISRDNAKNTVYLQMNSLKPEDTAVYYCAVDSGQKRRDYWGQGTQVTVSS”, the “polyreactivity (PSR sort gate)” value is reported as “high polyreactivity”. On to “QVQLVESGGGLVQAGGSLRLSCAASGSIFVGNAMGWYRQAPGKERELVAAITRSGGRTYYADSVKGRFTISRDNAKNTVYLQMNSLKPEDTAVYYCNAVYWTVYSREYDYWGQGTQVTVSS”, for which the “polyreactivity (PSR sort gate)” value is “high polyreactivity”. In the case of “QVQLVESGGGLVQAGGSLRLSCAASGSIFARNAMGWYRQAPGKERELVAAITWGGGITYYADSVKGRFTISRDNAKNTVYLQMNSLKPEDTAVYYCATDGYSYFTDRLDYWGQGTQVTVSS”, the “polyreactivity (PSR sort gate)” value is reported as “low polyreactivity”.

Regarding “QVQLVESGGGLVQAGGSLRLSCAASGSTFVYYAMGWYRQAPGKERELVARISSGGSTYYADSVKGRFTISRDNAKNTVYLQMNSLKPEDTAVYYCAVLLWVSPLKREFYWGQGTQVTVSS”, the “polyreactivity (PSR sort gate)” value is given as “high polyreactivity”. Under “QVQLVESGGGLFQAGGILRLSCAASGFIFSSYAMGLYRLAPGKERELVAAISRSGGRTYYADSVKGRFTISRDYAKNTVYLQMNSLKPEDTAVYYCAARWYGLYLQRYDYWGQGTQVTVSS” stands “high polyreactivity”; under “QVQLVESGGGLVQAGGSLRISSAASGSTFFRYDLGWYRPAPGKEWELVAAITASGTRTYYADSVKGRFTISRDNAKNTVYLQMNSLKPEDTAVYYCAADSRRYGYDYWGQGYQVTVSS”, “high polyreactivity”. “QVQLVESGGGLVQAGGSLRLSCAASGRTFRAYVMGWYRQAPGKERELVAAISGRGGSTYYADSVKGRFTSSRDNAKNTVYLQMNSLKPEDTAVYYCNAVQLSQRPHDYWGQGTQVTVSS”: the “polyreactivity (PSR sort gate)” value is reported as “high polyreactivity”. Under “QVQLVESGGGLVQAGGSLRLSCAASGSIFDIYGMGWYRQAPGKERELVASISGGAGSTNYADSVKGRFTISRDHAKNTVYLQMNSLKPEDTAVYYCAAEVYVPDYFQHKFDVEYEYWGQGTQVTVSS” stands “low polyreactivity”. Turning to “QVQLVESGGGLVQAGGSLRLSCAASGSTFAHKAMGWYRQAPGKEGEFVAGISTNGGSTYYADSVKGRFTISRDNAKNTVYLQMNSLKPEDTAVYYCAAVNYYDQYGDYYWGQGTQVTVSS”, the “polyreactivity (PSR sort gate)” value was “low polyreactivity”.

As for “QVQLVESGGGLVQAGGSLRLSCAASGSTFYSYAMGWYRQAPGKERELVAAITTSGVSTYYADSVKGRFTISRDNAKNTVYLQMNSLKPEDTAVYYCNAYFIYEGGWYYKAQYDYWGQGTQVTVSS”, the “polyreactivity (PSR sort gate)” value is listed as “low polyreactivity”.

The record behind these values is the nanobody polyreactivity screen of Harvey et al. (2022).
